Test results as given in publication PMC5442325.

Tests used:
[1] = biological target: Deinococcus radiodurans RecA K83R mutant protein (Deinococcus radiodurans) (UniProt P42443)
[2] = biological target: Deinococcus radiodurans RecA protein (wild type) (Deinococcus radiodurans) (UniProt P42443)

B1: Deinococcus radiodurans RecN protein (wild type) (natural protein)
chain: MTRKARTPKAAPVPEAVAVVEPPPPDAAPTGPRLSRLEIRNLATITQLELELGGGFCAFTGETGAGKSIIVDALGLLLGGRANHDLIRSGEKELLVTGFWGDGDESEADSASRRLSSAGRGAARLSGEVVSVRELQEWAQGRLTIHWQHSAVSLLSPANQRGLLDRRVTKEAQAYAAAHAAWREAVSRLERLQASQRERARQIDLLAFQVQEISEVSPDPGEEEGLNTELSRLSNLHTIAQAAAGGVELLSDGDLNAAGLIGEAVRALNAGAKYDETVMQLQNELRAALESVQAIAGELRDVAEGSAADPEALDRVEARLSALSKLKNKYGPTLEDVVEFGAQAAEELAGLEEDERDAGSLQADVDALHAELLKVGQALDAAREREAEPLVDSLLAVIRELGMPHARMEFALSALAEPAAYGLSDVLLRFSANPGEELGPLSDVASGGELSRVMLAVSTVLGADTPSVVFDEVDAGIGGAAAIAVAEQLSRLADTRQVLVVTHLAQIAARAHHHYKVEKQVEDGRTVSHVRLLTGDERLEEIARMLSGNTSEAALEHARELLAG
steady-state RecN ATP hydrolysis rate, order of addition RecA K83R+DNA then RecN (reaction 5; 2 μM RecN, 2 μM RecA K83R, 50 μM duplex DNA, buffer N) [1]: 56.3 µM/min | steady-state RecN ATP hydrolysis rate, order of addition RecN+DNA then RecA K83R (reaction 3; 2 μM RecN, 2 μM RecA K83R, 50 μM duplex DNA, buffer N) [1]: 53.4 µM/min | steady-state RecN ATP hydrolysis rate, order of addition RecN+RecA K83R then DNA (reaction 4; 2 μM RecN, 2 μM RecA K83R, 50 μM duplex DNA, buffer N) [1]: 47.5 µM/min | nicked circular duplex product of RecA-mediated DNA three-strand exchange under dilute conditions (0.4 μM RecA, 500 nM RecN, 45 min) [2]: > 3 fold
